Measured values published in the DeepSol protein solubility set.

Assay: soluble on expression in E. coli; label from the status in PepcDB or PDB records
For “MGSDKIHHHHHHDNLQAPGSIKDEEKLRSWLAGYEAEAIKVLREVALSGWRYFNDASPSLKLALDEAENVLTMFVRSTSMQAKQFDMASVTDEKVMRQLGYVSFEGMSALAPSRFADYSQAQAALNRDSKDSTICDKDVPPPCALQKIDMDSIFRNEKDASRLQHLWVSYVTAIAKSKPSYNNIITISNEGAKLNGFANGGAMWRSAFDMSSKVHKAEFDLNKQIDKIYSTIQPFYQLLHAYMRRQLAGIYSNPVGLSKDGPIPAHLFGSLDGGDWSAHYEQTKPFEEESETPEAMLSAFNTQNYTTKKMFVTAYRYFKSAGFPHLPKSYWTSSIFARVWSKDMICHPAAALDMRAPNDFRVKACAQLGEPDFEQAHSLLVQTYYQYLYKDQSLLFREQASPVITDAIANAFAHLSTNPHYLYSQKLVPSEHLDIKDSVIINKLYKESLESFTKLPFTIAADNWRYELFDGTVPKNKLNDRWWEIRNKYEGVRSPQPYNTSNLDALIHNSVSQVHSPATRTLISYVLKFQILKALCQRELFWLSEGCILSEDTTEKLRETMKLGSSITWLKALEMISGKGELDAQPLLEYYEPLINWLRNTNEIDQVVVGWDGEGTP”, the “soluble on expression in E. coli” value was “not soluble”. In the case of “MIIGYARVSSLDQNLERQLENLKTFGAEKIFTEKQSGKSIENRPILQKALNFVRMGDRFIVESIDRLGRNYNEVIHTVNYLKDKEVQLMITSLPMMNEVIGNPLLDKFMKDLIIQILAMVSEQERNESKRRQAQGIQVAKEKGVYKGRPLLYSPNAKDPQKRVIYHRVVEMLEEGQAISKIAKEVNITRQTVYRIKHDNGLSSHHHHHH”, the “soluble on expression in E. coli” value is reported as “soluble”. In the case of “MSESTSSVGPGRPKDPAKREAILEAAKRLFLCNGYDGSSMEAIASEAGVSKLTVYSHFTDKETLFSEAVKAKCAEQLPALYFQLAEGAPLEKVLLNIARGFHRLINSHEAIALTRLMAAQAGQNPKLSELFFEAGPKQVIDEMERLLEQARRSGKLAFPDARHAAEHFFMLVKGCANYRLLIGCAEPLDEAEGERHVEEVVALFLRAFAAGG”, the “soluble on expression in E. coli” value is reported as “not soluble”. For “MKMKLTAAIIAAFVIIMGCAGGPKASKADELDLAIRDTSDYLNDNIPKGNKIIILNIQSDYASLSDYIIDELIANAVNDKIFKVVDRAQLEQIRAELNFQWSGEVDDKSALEIGKFLGAQTIVTGAISQLADRHRMRIRALNVKTAEVQGQYNRNITTSPMITALMKGGKSTNTSYGGKTRSGNSSGTTGGTSGAKTSQPATPEYKIGDTGPAGGLIFYDKKNNRNGWRYLEAAPANTERETFMSGDSPYSLGNKNLVGDGFENTQNMMKSIEKKGGGIGSAPYYCTNLVVNGFNDWYLPSFDEISLMYTNLHANNLGSFKQRDYWHSSEHGVVWGTYSFAKGEKGQHSYAYDNDKRLTRACRRF”, the “soluble on expression in E. coli” value was “not soluble”. In the case of “MEDDAPMNLCNEQFEEIEDSPIDDNDNESFYNADGDVELEEEEVHETPKNFKNGGRFKTNMTNPKVNDLTTIEEKNEDLRSAASSRSASRPASVMSDKSFSSQFEFQSGGENAIEEYTNQVFADENKADLLFPETSKFMNGASPPKDKHHSWEPSIHHYDKQPPPDIQTNSPVFGNLNHRKNKLIPQARAKPGANDNEIVERDNDENVPTTSDKSAFITSPMNSTNHDEKTSTPKRPTNRKIGQYQGPNFDLSSIYVGSPQHQNTSISTGQQMPTSSYSHAHSETMMTNQTINESMVRRVLNGNNKNQDLFAALEEARKRRAAQPSKPDFRINTTRTRVPIKPTSARHSGNVVSSTSNDNTTAASSKDLTTSRKAMETFRQNASMADATNSNTASMTSILSTISTARTDISRSSRNHGGGFSNTSVSTVIPANNGNVSLSHGRDGRDSVSSVRTMSRASSTSTVYAGSTFSGVSKPLRIHAKRVAFGCVAVGETLRVEVEVENISDRQCLVRASTDSTTPVYQILDNKLTMVDPKKSIKFQVSFSPSSVGRYQVIMSIEVPAQNFIHKIPMWGNGGIAKFVPTSPDLQQTINQSEYAMCTSCAKRISFKISNSAGTRDGFAMIKVFDSAMRQLPDGCVAFFPAPGFIVKKKSDKRVDIRIDSSYIDLHDENNFRTSSSLSTASTTSSFQRRILPGAKFFVHVVWGEETMRTRLRLLEVRTGQHQLIDGHDFTSFQFSDEEVLRAVPVGFPAIKPEDRDLFAASYRSFFINFFTSTTEFRAATSRKKKEICSNDDSTLLETTAFRNQTFVNDVTIVPNTRFSNRK”, the “soluble on expression in E. coli” value is reported as “not soluble”. For “LQTLPPVQLAQKYFQIFSEEKDPLWQDPCEDKRHKDIWSKEKTCDRFPKLLIIGPQKTGTTALYLFLGMHPDLSSNYPSSETFEEIQFFNGHNYHKGIDWYMEFFPIPSNTTSDFYFEKSANYFDSEVAPRRAAALLPKAKVLTILINPADRAYSWYQHQRAHDDPVALKYTFHEVITAGSDASSKLRALQNRCLVPGWYATHIERWLSAYHANQILVLDGKLLRTEPAKVMDMVQKFLGVTNTIDYHKTLAFDPKKGFWCQLLEGGKTKCLGKSKGRKYPEMDLDSRAFLKDYYRDHNIELSKLLYKMGQTLPTWLREDLQNTR”, the “soluble on expression in E. coli” value was “soluble”. With “GSPGISGGGGGSHIEGYECQPIFLNVLEAIEPGVVCAGHDNNQPDSFAALLSSLNELGERQLVHVVKWAKALPGFRNLHVDDQMAVIQYSWMGLMVFAMGWRSFTNVNSRMLYFAPDLVFNEYRMHKSRMYSQCVRMRHLSQEFGWLQITPQEFLCMKALLLFSIIPVDGLKNQKFFDELRMNYIKELDRIIACKRKNPTSCSRRFYQLTKLLDSVQPIARELHQFTFDLLIKSHMVSVDFPEMMAEIISVQVPKILSGKVKPIYFHTQ” the “soluble on expression in E. coli” value was “soluble”. For “MNDVQQAINSDDIPLTDELVVSYLQDNPEFFNRNNSLMTGLRLNDEQRGTVSLVERQQQQLRQKVYGLEDEITQLMSVANHNEQLFVLYSDLYLRLLDCQSAEELLDCLHQATTELLSLSSFKLWLVSGNNTEVAHHSLSTNDCAGVMQNRLTNDEYYFGRLQESEQTLIFSKPCLGSVVLIKLTHDEQAVGFLAIGSEDAHHFDPRMDTLLLNQFKRLVAKLLHQQLSMLEHHHHHH”, the “soluble on expression in E. coli” value was “soluble”. With “MEKNWYVVHTYSGYENKVKANLEKRVESMGMQDKIFRVVVPEEEETDIKNGKKKVVKKKVFPGYVLVEIVMTDDSWYVVRNTPGVTGFVGSAGSGSKPTPLLPGEAETILKRMGMDERKTDIDFELKETVKVIDGPFANFTGSIEEIDYDKSKVKVFVNMFGRETPVELEFTQIDKLLEHHHHHH” the “soluble on expression in E. coli” value was “not soluble”. With “MDMGLREMCVGEKRTVIIPPHLGYGEAGVDGEVPGSAVLVFDIELLELVAGLPEGYMFIWNGEVSPNLFEEIDKDGNGEVLLEEFSEYIHAQVASGKGKLAPGFDAELIVKNMFTNQDRNGDGKVTAEEFKLKDQEAKQDEL” the “soluble on expression in E. coli” value was “soluble”. With “MNDDLCYKLNYLARLILSKVNEKIKPHGVTQGQLPVLCCLHDAEGQTQAELCKNIQVEQPTMANTLRRMERDGLIFRTASDKDKRQSRVYITERTRPTVEALQEKRDEVVAAMVRHMSPEDLATFTRLLDVATKALENPETE” the “soluble on expression in E. coli” value was “not soluble”. In the case of “MGSDKIHHHHHHKTTTAVQLADTFAFMRQKKVLVLDLDPQTNATLALVGEERWEQADERGQTLAHLFLDLLNGTRNFNPERAIVRGASNLNTIPPEVFDQLPESAQYGRVDVLPSSIRLIDVQDRMQDIANRTNYSLSPMAVVQKYIGPLFGRYDYVLIDCPPNLGFITQNGLEVSDHYLIPTIPDRMSTYGIPQIAGKIDELRRDRDLKIRCLGVVVTKFQSNSSQHKQGLEHLPEYLRSAFAYTNEDTPPILNTVMPQTNASAEAMLFERDVRNYPVKYGSGAVAGQAAYKYGLDLAAEVQALLGDEDEA”, the “soluble on expression in E. coli” value is reported as “not soluble”. With “NTMRSFILRARSAPTDSQRLLDEIGGKCHTEILAHCMMNSLFTAQSHREDVVIHLVLESTRDYSRTITVEANEISDVGGFHEAALIALLVKALDASVGMGKEQTRVVQPGLTVRTISFEALLGELAEHHSLYMMDKKGDSIRDIKIGPNPCFILTDHIPMPKKSGNSMKRLGVEKISLGPKMLFASQCVTLIHNEIDHQEA” the “soluble on expression in E. coli” value was “not soluble”. In the case of “MRVHEPNIIFEDDKHKFIWLGLDESENEKGILTNQYLIVHEGKGYLLDPGGYFVFERVYQNVTRFVKPENIVTILYSHQDPDVIGSLNLWVDLAPNATFYVSALWERFLPHLGAELKGRIVDIPDEGMSIDFIRAIPAHFMHSPGNFHYYDTYAKIYFSGDLGAAIFKDKWYLFVEDFESHIKLMEPFHRRYIASKKAIDIWLKKIEGLEINVIAPQHGAIFEGENAKKFIQWLRNLDKVGLDLME”, the “soluble on expression in E. coli” value is reported as “soluble”. For “MSRLLALLALAPLLAGAAETTAPKPPSAFTVEAQRRVEAELPFADRADFERADRGLIRRPERLLIRNPDGSVAWQLGGYDFLLDGKPRDSINPSLQRQALLNLKYGLFEVAEGIYQVRGFDLANITFIRGDSGWIVVDTLTTPATARAAYELVSRELGERPIRTVIYSHAHADHFGGVRGLVEPQQVASGAVQIIAPAGFMEAAIKENVLAGNAMMRRATYQYGTQLPKGPQGQVDMAIGKGLARGPLSLLAPTRLIEGEGEDLVLDGVPFTFQNTPGTESPAEMNIWLPRQKALLMAENVVGTLHNLYTLRGAEVRDALGWSKYINQALHRFGRQAEVMFAVHNWPRWGNAEIVEVLEKQRDLYGYLHDQTLHLANQGVTIGQVHNRLRLPPSLDQEWYDRGYHGSVSHNARAVLNRYLGYYDGNPATLDPLSPEDSAGRYVEYMGGAERLLEQARASYARGEYRWVVEVVNRLVFAEPDNRAARELQADALEQLGYQAENAGWRNSYLSAAYELRHGVPRDQPTMKAGSADALAAMDTGLLFDYLGVRLDAGAAEGKALSINLRLPDIGENYLLELKNSHLNNLRGVQSEDAGQTVSIDRADLNRLLLKEVSAVRLVFEGKLKSSGNPLLLGQLFGMLGDFDFWFDIVTPAAKSEG”, the “soluble on expression in E. coli” value was “soluble”. With “MSLRGMRIDAYIAEHARKNPDQLALEDGKKSISYSCLDEDINKVASSLDGFEHCKFAILAESGIQYVKILMAVYRSGNIAIPLPIEMQGRSLERILDTACINNIIATKKQYSRFGDGFFERFGTVIVVSDDTSVETLSRRMILERNDPRLRLVLYTSGTTGTPKGVMLSDKNLVSNARSITGILSIGSKDKAALVISPHHAFGNSIINSHLMAGSSIQIGTMNFIDPVFSLIESGVSIFYGVPSTYRILLKYPERFRKAFQNVRTAASAGGAMDRTVVRSIRELSPDTQILPMYGQTEATARLSYLPAEDVDEFIDTIGKAIPGVTLEVFDTENRPVEPGVTGELVARGDNILLGYLNDEAATEKKIIDGWLHTGDLAQKLRCGYIKLLGRKDDLIKIGDHRVNPREIEKEIEMNNEVSSVFVVPVSHELMGNAISLMVIPNERTEIDTIFSFCRKNLPGYLYPREILFIDHLPLSENGKISNRSIIEEYQHVKASEGHHHHHH” the “soluble on expression in E. coli” value was “soluble”. For “MSLESVGDVLKRQPSRFHYQDLVQKIMKDPDVAAFVQQESLNQDELNRSISKFNQYITERDKFLRGDTDYIAKGYKPILVMNHGYADVSYEETPELIAAEKEAAIKKRLNLINFPSSLKNVSFLDVYRDDVQRLTVLKRMIEFVNDYPNNLKGLYLYGDFGVGKSFMVAALAHDLSEKRGVSSTLLHYPSFVIDVKNAIGDGNVKTLVDEIKLSEVLILDDIGAEQSTAWVRDEILQVILQYRMQENLPTFFTSNFNFEDLEKHFAKGKNGNDETWEARRVMERIRYLAEETRLEGVNRREGHHHHHH”, the “soluble on expression in E. coli” value was “soluble”. For “MGSDKIHHHHHHMTPVLSLDMEDPIRFIDENGSFEVVKVGHNLAIHGKKIFDELAKRNLKIILDLKFCDIPSTVERSIKSWDHPAIIGFTVHSCAGYESVERALSATDKHVFVVVKLTSMEGSLEDYMDRIEKLNKLGCDFVLPGPWAKALREKIKGKILVPGIRMEVKADDQKDVVTLEEMKGIANFAVLGREIYLSENPREKIKRIKEMRL”, the “soluble on expression in E. coli” value was “soluble”. With “LDDYDWFAGNISRSQSEQLLRQKGKEGAFMVRNSSQVGMYTVSLFSKAVNDKKGTVKHYHVHTNAENKLYLAENYCFDSIPKLIHYHQHNSAGMITRLRHPVS” the “soluble on expression in E. coli” value was “soluble”.
